Experimental data: the nanobody polyreactivity screen of Harvey et al. (2022)

Assay: yeast display, Sf9 membrane polyspecificity reagent, FACS + sequencing; frameworks hold sequencing errors
Method in brief: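 A synthetic nanobody library was expressed on Saccharomyces cerevisiae BJ5465 by galactose induction for 36–48 hours. The library was stained for 1 hour at 4 °C with 10% biotinylated, detergent-solubilized Sf9 membrane reagent and enriched with streptavidin microbeads before FACS. Low and high (top ~1%) gates were set on anti-HA fluorescence for expression and streptavidin fluorescence for reagent binding, and each polyreactivity label reflects the gate of origin.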

| Sequence | polyreactivity (PSR sort gate) |
| --- | --- |
| QVQLEESGGGLVQAGGSLRLSCAASGSMFTRYAKGWYRQAPWKERELVAAISTSGGSTYYADSVKGRFTISRDNAKNTVYLQMTSLKPEDTAVYYCAADDQRRSGYYSWGQGTQVTVSS | high polyreactivity |
| QVQLEESGGGLVQAGGSLRLSCAASGSNAMGWYRQAPGKERELVAVITSRGGSTYYADSVKGRFTISRDNAKNTVYLQMNSLKPEDTAVYYCAKAWYVRGTWSVHVRYGYWGQGTQVTVSS | high polyreactivity |
| QVQLEESGGGLVQAGGSLRLSCAASGSTFESYAMGWYRQAPGKERELVATITRRSTRTYYADSVKGRFTISRDNAKNTVYLQMNSLKPEDTAVYYCAARVYTVRAIGMGYWGQGTQVTVSS | high polyreactivity |
| QVQLEESGGGLVQAGGSLRLSCAASGSTFLLNAMGWYRQAPGKERELVAAITSSGGTNYADSVKGRFTISRDNAKNTVYLQMNSLKPEDTAVYNCYTRYSPGYQGTEVDYWGQGTQVTVSS | low polyreactivity |
| QVQLEESGGGLVQAGGSLRLSCAASGSTFNYYAMGWYRTATGKERELVAAITGSGTSTYYADSVKGRFTISRDNAKNTVYLQMNSLKPEDTAVYYCNARYRPRQRPEGGYWGQGTQVTVSS | high polyreactivity |
| QVQLEESGGGLVQAGGSLRLSCAASGSTFQRYAIGWYRQAPGKERELVAAISYRAGRRYYADSVKGRFTISRDNAKNTVYLQMNSLKPEDTAVYYCAAKNQGYQYDYWGQGTQVTVSS | high polyreactivity |
| QVQLEESGGGLVQAGGSLRLSCAASGSTFSDNAMGWYRQAPGKERELVAAISTGTSTYADSVKGRFTISRDNAKNTVYLQMNSLKPEDTAVYYCAADVGIRPLNYHPYNYWGQGTQVTVSS | low polyreactivity |
| QVQLEESGGGLVQAGGSLRLSCAASGSTFSGYAMGWYRQATGKDRELVAAITSSGGRTYYADSVKGRFTISRDKAKNTVYLQMNSLKPEDTAVYYCAALYYHEYDYWGQGTQVTVSS | low polyreactivity |
| QVQLEESGGGLVQAGGSLRLSCAASGSTFTPYAMGWYRQAPGKERELVAAISWSGGSTYYADSVKGRFTISRDNAKNTVYLQMNSLKPEDTAVYYCAATYSYRTRAWGWGNYDYWGQGTQVTVSS | high polyreactivity |
| QVQLEESGGGLVQAGGSLRLSCAASGSTLNYYAMGWYRQAPGKERELVAAITWSGGSTSYADSVKGRFTISRDKAKNTVYLQMNSLKQEDTAVYYCATDFPTVQLYDTDWLSSDMGYWGQGTQVTVSS | low polyreactivity |
| QVQLEESGGGLVQAGGSLRLSCAASGSTSLKNAMGWYRQAPGKERELVAAISSGGSTYYADSVKGRFTISRDNAKNTVYLQINSLKPEDTAVYYCAAKYLRGLGYWGQGTQVTVSS | high polyreactivity |
| QVQLEESGGGLVQAGGSLRLSCAASVSTFRLYVMGGYRQAPGKERQLVAAIDWSGGSTYYADSVKGRFTISRDNAKNTVYLQMNSLKPEDTAVYYCAADYSVASPDGPDVIYDYWGQGTQVTVSS | low polyreactivity |
| QVQLEESGGGLVQAGGSLRLSCAATGFIFRGYAMGWYRPAPGKERELVAAITSSGGDTYYADSVKGRFTISRDNAKNTVYLQMNSLKPEDTAVYYCNARDYASGTEGDYWGQGTQVTVSS | low polyreactivity |
| QVQLEESGGGLVQAGGSLRLSCAATGSTFGYAMGWYSQATGKEGEWVAALTSTGGSTYYADSLKGRFTISRDKAKNTVDLQMNSLKPYDTAVYYCAADAYWIRSRFLYRIRYNYWGQGTQVTVSS | high polyreactivity |
| QVQLEESGGGLVQAGGSLRLSCAATGSTIPYYAMGWYRQAPGKERELVARITSGDRTFYADSVKGRFTISRDNAKNTVYLQMNSLKPEDTAVYFCNAQVHYYSWYGYWGQGTQVTVSS | high polyreactivity |
| QVQLEESGGGLVQAGGSLRLSCAAYGFTIVGNTMGWYRQAPGKERELVASINTNGGSTYYADSVKGRFTISRDNAKNTVYLQMNSLKPEDTAVYYCNARSWYPYDYWGQGTQVTVSS | low polyreactivity |
| QVQLEESGGGLVQAGGSLRLSCAAYGSTFSYAMGWYRQAPGKERELVAAITIGGRTSYADSVKGRFTISRDNAKNTVYLQMSSLKPEDTAVYYCAADDLPGMDYWGQGTQVTVSS | low polyreactivity |
| QVQLEESGGGLVQAGGSLRLSSAASGRIFRAYAMGRYRQAPGKERELVAAITSGGGSTYYADSVKGRFTISRHNAKNTVYLQMNSLKPEDTAVYYSAAKSSRIAYSSWFYYATFDYWGQGTQVTVSS | high polyreactivity |
| QVQLEESGGGLVQAGGSLRLSWAASGSTFQSYAMGWYRQAPGKERELVAVIDSGGRTYYADSVKGRFTISRDNAKNTVYLQMNSLKPEDTAVYYCATVPGYSLYDLIVYWGQGTQVTVSS | high polyreactivity |
| QVQLEESGGGLVQSGGSLRLSCAASGSIFYGYTMGWYRQAPGKEMEFVAAITGSGGSTYFADSVKGRFTISRDNAKKTVYLQMNSLKPEDTSVYYCAARRYVNRRYDYWGQGTQVTVSS | high polyreactivity |
| QVQLEESGGRLVQAGGSLRLSCAASGSTFITNAMGWYRQAPGKERELVAAITYSTGGTYYADSVKGRFTISRDNAKNTVYLQMNSLKPEDTAVYYCAALLYFFLYDYWGHGTQVTVSS | low polyreactivity |
| QVQLEESGGSLVQAGGSLRLSCAASGRTFTVNDMGWYRQAPGKERELVADIRGSGVSTSYADSVKGRFTISRDNAKNTVYLQMNSLKPADTAVYYCATDPVKSGYQRYYYWGQGTHVTVSS | low polyreactivity |

| Sequence | polyreactivity (PSR sort gate) |
| --- | --- |
| QVQLEESGRGLVQAGGSLRLSCAASGFTFRIYAMGWYRQAPGKGREFVAAITWSSGSTYYADSVKGRFTISRDNAKITVYLQMNSLKPEDTAVYYCAATYRFFPPRYYYWGQGTQVTVSS | high polyreactivity |
| QVQLEESGRGLVQAGGSLRLSCAASGRTFAYYAMGWYRQAPGKERELVAAITSGGSTNYADSVKGRFTISRDNAKNTVYLQMNSLKPEDTAVYYCNARFRWPWSTYDYWGQGTQVTVSS | high polyreactivity |
| QVQLEESGRGLVQAGGSLRLSCAASGSTFWSYAMGWYRQAPGKERELVATITRAGTTNYADSVKGRFTISRDNAKNTVYLQMNSLKPVDTAVFYCATRRPIYVRAYDYWGQGTQVTVSS | high polyreactivity |
| QVQLEESGRGLVQAGGSLRLSCAASGSTSGIYAMGWYRQAPGKERELVAAITWSGGSTNYADSVKGRFTISRDNAKNTVYLQMNSLKPVDTAVYYCAAEFYSYKYPDFDYWGQGTQVTVSS | low polyreactivity |
| QVQLEESGRGLVQAGGSLRLSCASSGIIFDGNAMGWYRQAAGKERELVAAITGGGSTDNADSVKGRFTISRDNGKYTVYLQMNSLKPEDTAVYYCAAVRSYYPGYYLGQGTQVTVSS | high polyreactivity |
| QVQLEESRGCLVQAGGSLRLSCAASGSIFYVYAMGWYRQAPGKERELVAAINTSGGSTYADSVMGRFTISRDNAKNTVYLQMNILIPEDNAFYYCAADGYYEYTWGEYDSWGQGTQVTVSS | low polyreactivity |
| QVQLEESRGGLVQAGGSLRLSCAASGFIIKHYAMGWYRQAPRKERELVAAISKRGGSTYYADSVKGRFTISRDNAKNTVYLQMNSLKPEDTAVYYCNAYLYVWHYPSGDEYDYWGQGTQVTVSS | high polyreactivity |
| QVQLEESRGGVVQAGGSLRLSCAASGSIITVYALGWERQAPGQERELVAGISRGGGTYYADSVTGRFTISRDNAKNCVYLQMNSLKPEDTAVYYCAAQIELWPYGIYQSGMYYWGQGTQVTVSS | low polyreactivity |
| QVQLEESVGGLVQAGGSLRLSCAASGSIFSPNAMGSYRQAPGKERELVAAISSNGDSTYYADSVKGRFTISRDNAMNTVYLQMNSLKPEDTAVYYCAAVSIGPGEYDYWGQGTQVTVSS | low polyreactivity |
| QVQLEETGGGLVQAGGSLRLSCAASGIILGKNAMGWYRQAPGKERELVASITSGAGITYYADSVKGRFTISRDNAKNTVYLQMNSLKPEDTAVYYCAADWSGDFFTDGYWGQGTQVTVSS | low polyreactivity |
| QVQLEETVGGLVQAGGSLRLSSAATGLTFYLYVMGWYSQAHGKERELVAAISRRGGTTYYADSVKGRVTISRDKAKNTVYLQLNCLKPDDTAVYDCAADFFARTQRTFDYWGLGTQVTVSS | high polyreactivity |
| QVQLGESCGGLVQAGGSLRLSCAASGPIFRSYAMGWYRQAPGKERELVARITSGGSTNYADSVKGRFTISRDNAKNTVYLQMNSLKPEDSAVYYCARDWGKSEYDYWGQGTQVTVSS | high polyreactivity |
| QVQLGESGGALVQAGGSLRLSCAASGFTFCPYAMGWYRQAPGKERELDAAISQSGGRTSYADSVKGRFTISRDNAKNTVYLQMNSLKPEDTAVYYCAKRAYGYRSIYRMDYWGQGTLVTVSS | high polyreactivity |
| QVQLGESGGGLDQAGGSLRLSCAASGRTFTNNAMGWYRQAPGKERELVAAITSGGRTNYADSVKGRFTISRDNAKNTVYLQMNSLKPEDTAVYYFAARIPSDGYYYWGQGTQVTVSS | high polyreactivity |
| QVQLGESGGGLVQAGCSLRLSCAASGSIFIAYDMGWYRQAPGKERELVAAISIIDGSTYYADSVKRRFTISRDNAKNTVYLQMNSLKPEDTAVYYCSTRVFYLYDYWGQGTQVTVSS | low polyreactivity |
| QVQLGESGGGLVQAGGSLRLRCAASGYIITYNAMGWYRQAPGKERELVAAISSGGSTNYADSVKGRFTISRDNAKITVYLQMNSLKPEDTAVFYCAAPVWTYDDYWGQGSQVTVSS | low polyreactivity |
| QVQLGESGGGLVQAGGSLRLSCAASGFIFFYYAMGRYRQAPGKERELVAVNTRGGSTYYADSVKGRFTISRDNAKNTVYLQMNSLKPVDTAVYYCAAGIFYYRYYQVDYWGQGTQVTVSS | high polyreactivity |
| QVQLGESGGGLVQAGGSLRLSCAASGFIFPIYAMGWYIKSPVTERELVAVISGSGGSTYYADSVKGRFTISRDNAKNTVYLLMNSLKPEDTAVYYCAALGRNVAVYKGGYWGQGNQVTVSS | low polyreactivity |
| QVQLGESGGGLVQAGGSLRLSCAASGGIFDIYAMGWYRQAPGKERELVAAIRGSGGRTYYADSVKGRFTISRDNAKNSLYLQMNSLKPEDTAVYYCAARPSIVTGLRYGYWGQGTQVTVSS | high polyreactivity |
| QVQLGESGGGLVQAGGSLRLSCAASGGTFYYYAMGWYRHAPGKERELVATISYSGASTYYADSVKGRFTISRDNAKNTVYLQRNSLKPEDTAVYYCNARPYNHRYRAWMDYWGQGTQVTVSS | high polyreactivity |
| QVQLGESGGGLVQAGGSLRLSCAASGITFPGYAMGWYRQAPGKERELVARISRSGGSTYYADSVKGRFTISRDNAKNTVYFQMNSLKPEDTAVYYCAAGAYRSGGYSFDDWGQGTQVTVSS | low polyreactivity |
